The nature of this test: Fingerprinting: demethylation activity on methoxy probes 1-5, Purpald colorimetric assay. In kind it is biochemical. The note with it: formaldehyde formation, FIG. 5A. How it is done:
To test the viability of compounds I-5 as probes, the fatty acid hydroxylase CYP102A1 (SEQ ID NO 1) from Bacillus megaterium and […] engineered variants thereof (SEQ ID NO 3, SEQ ID NO 4, SEQ ID NO 5, SEQ ID NO 6, SEQ ID NO 8, SEQ ID NO 11, SEQ ID NO 12, SEQ ID NO 14, SEQ ID NO 15) were fingerprinted. […] Parallel reactions with 1-5 were carried out using these P450s in purified form and a NADPH cofactor regeneration system containing a […] (PTDH).
We investigated the utility of these probes for high-throughput profiling of a large library of engineered monooxygenase variants. […] The P450 libraries were expressed in 96-well plates (DH5a cells) and screened against probes 1-5 in parallel to acquire a fingerprint for each functional P450 variant occurring in these libraries. Reactions with the probes (1 mM, 60 min) were carried out using cell lysate in the presence of the phosphite/PTDH cofactor regeneration system, and probe activity was quantified based on absorbance at 550 nm after 60-min incubation with Purpald (30 mM). […] This example illustrates how probes of general formula II such as compound 1-5 could be used for fingerprinting a large library of monooxygenases in a high throughput manner.
Expression and Fingerprinting of P450 Libraries in 96-Well Plates. 96-deep well plates containing 400 μL LB medium (100 mg ampicillin L-1) per well were inoculated with single colonies from the P450 libraries. The total number of screened P450 variants was about 10,000. In each plate, 8 wells were inoculated with the parent enzyme FL#62. […] P450 demethylation activity on probe 1-5 was measured in parallel reactions with the aid of a Beckman Coulter Multimek 96 automated pipettor and a TECAN Infinity plate reader. […] After incubation for 1 hour at room temperature, plates were added with 50 μL 2 M NaOH containing 150 mM Purpald and the absorbance at 550 nm measured using the plate reader. The measured demethylation activity of each P450 variant on the five probes was then normalized to the activity of the parent enzyme FL#62 (SEQ ID NO 15) from the same plate. […]

B1: FL#41: engineered CYP102A1 variant used as reference P450 for fingerprint normalization, SEQ ID NO 3 (protein)
chain: MTIKEMPQPKTFGELKNLPLLNTDKPVQALMKIADELGEIFKFEAPGRVTRYLSSQRLIKEACDESRFDKNLSQALKFVRDFAGDGLATSWTHEKNWKKAHNILLPSFSQQAMKGYHAMMVDIAVQLVQKWERLNADEHIEVPEDMTRLTLDTIGLCGFNYRFNSFYRDQPHPFITSMVRALDEAMNKLQRANPDDPAYDENKRQFQEDIKVMNDLVDKIIADRKASGEQSDDLLTHMLNGKDPETGEPLDDENIRYQIITFLIAGHETTSGLLSFALYFLVKNPHVLQKAAEEAARVLVDPVPSYKQVKQLKYVGMVLNEALRLWPTAPAFSLYAKEDTVLGGEYPLEKGDELMVLIPQLHRDKTIWGDDVEEFRPERFENPSAIPQHAFKPFGNGQRACIGQQFALHEATLVLGMMLKHFDFEDHTNYELDIKETLTLKPEGFVVKAKSKKIPLGGIPSPSTEQSAKKVRKKAENAHNTPLLVLYGSNMGTAEGTARDLADIAMSKGFAPQVATLDSHAGNLPREGAVLIVTASYNGHPPDNAKQFVDWLDQASADEVKGVRYSVFGCGDKNWATTYQKVPAFIDETLAAKGAENIADRGEADASDDFEGTYEEWREHMWSDVAAYFNLDIENSEDNKSTLSLQFVDSAADMPLAKMHGAFSTNVVASKELQQPGSARSTRHLEIELPKEASYQEGDHLGVIPRNYEGIVNRVTARFGLDASQQIRLEAEEEKLAHLPLAKTVSVEELLQYVELQDPVTRTQLRAMAAKTVCPPHKVELEALLEKQAYKEQVLAKRLTMLELLEKYPACEMKFSEFIALLPSIRPRYYSISSSPRVDEKQASITVSVVSGEAWSGYGEYKGIASNYLAELQEGDTITCFISTPQSEFTLPKDPETPLIMVGPGTGVAPFRGFVQARKQLKEQGQSLGEAHLYFGCRSPHEDYLYQEELENAQSEGIITLHTAFSRMPNQPKTYVQHVMEQDGKKLIELLDQGAHFYICGDGSQMAPAVEATLMKSYADVHQVSEADARLWLQQLEEKGRYAKDVWAG
Consider B1, for which the “probe activity on probes 1-5 (in words)” value is listed as “minimal yet detectable activity on all five probes”.

B2: Wild-type CYP102A1: fatty acid hydroxylase CYP102A1 from Bacillus megaterium, SEQ ID NO 1 (protein, listed as Bacillus megaterium)
chain: MTIKEMPQPKTFGELKNLPLLNTDKPVQALMKIADELGEIFKFEAPGRVTRYLSSQRLIKEACDESRFDKNLSQALKFVRDFAGDGLFTSWTHEKNWKKAHNILLPSFSQQAMKGYHAMMVDIAVQLVQKWERLNADEHIEVPEDMTRLTLDTIGLCGFNYRFNSFYRDQPHPFITSMVRALDEAMNKLQRANPDDPAYDENKRQFQEDIKVMNDLVDKIIADRKASGEQSDDLLTHMLNGKDPETGEPLDDENIRYQIITFLIAGHETTSGLLSFALYFLVKNPHVLQKAAEEAARVLVDPVPSYKQVKQLKYVGMVLNEALRLWPTAPAFSLYAKEDTVLGGEYPLEKGDELMVLIPQLHRDKTIWGDDVEEFRPERFENPSAIPQHAFKPFGNGQRACIGQQFALHEATLVLGMMLKHFDFEDHTNYELDIKETLTLKPEGFVVKAKSKKIPLGGIPSPSTEQSAKKVRKKAENAHNTPLLVLYGSNMGTAEGTARDLADIAMSKGFAPQVATLDSHAGNLPREGAVLIVTASYNGHPPDNAKQFVDWLDQASADEVKGVRYSVFGCGDKNWATTYQKVPAFIDETLAAKGAENIADRGEADASDDFEGTYEEWREHMWSDVAAYFNLDIENSEDNKSTLSLQFVDSAADMPLAKMHGAFSTNVVASKELQQPGSARSTRHLEIELPKEASYQEGDHLGVIPRNYEGIVNRVTARFGLDASQQIRLEAEEEKLAHLPLAKTVSVEELLQYVELQDPVTRTQLRAMAAKTVCPPHKVELEALLEKQAYKEQVLAKRLTMLELLEKYPACEMKFSEFIALLPSIRPRYYSISSSPRVDEKQASITVSVVSGEAWSGYGEYKGIASNYLAELQEGDTITCFISTPQSEFTLPKDPETPLIMVGPGTGVAPFRGFVQARKQLKEQGQSLGEAHLYFGCRSPHEDYLYQEELENAQSEGIITLHTAFSRMPNQPKTYVQHVMEQDGKKLIELLDQGAHFYICGDGSQMAPAVEATLMKSYADVHQVSEADARLWLQQLEEKGRYAKDVWAG
Take B2: the “probe activity on probes 1-5 (in words)” value is reported as “no activity on three out of the five probes”.

Values taken from patent US9273342B2, “Methods and systems for evaluating and predicting the reactivity of monooxygenase enzymes” (University of Rochester, priority 2011, dated 2016).
